± gives the uncertainty stated by the source.

A short description of this series: amyloid nucleation score relative to WT ADan (yeast Sup35 reporter selection) (log enrichment difference); higher = more amyloid nucleation. As to the method: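 Deep mutational scan of the ADan peptide fused to the Sup35 nucleation domain (SupN) in S. cerevisiae [psi-pin-], covering all single amino-acid substitutions and stop truncations (truncations = sequence up to the stop). After 24 h Cu2+ induction, cells were selected on -ADE-URA plates for 7 d at 30 °C. The nucleation score is log enrichment (output/input, deep sequencing) minus that of WT ADan, as the error-weighted mean of 3 biological replicates (DiMSum).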
Regarding EAS [N-4-*], the amyloid nucleation score was -2.54 ± 0.48.

The substance EASN [C-5-*] showed an amyloid nucleation score of -4.07 ± 0.81. For the substance EASNC [F-6-*], the amyloid nucleation score was -3.12 ± 0.32. The same measure for EASNCF [A-7-*]: -4.37 ± 0.56; for EASNCFA [I-8-*]: -3.92 ± 0.58; for EASNCFAI [R-9-*]: -3.67 ± 0.55. The result for EASNCFAIR [H-10-*] reads -4.06 ± 0.6; that for EASNCFAIRH [F-11-*], -3.45 ± 0.39.

EASNCFAIRHF [E-12-*] returned an amyloid nucleation score of -3.42 ± 0.34. The same measure for EASNCFAIRHFE [N-13-*]: -5.86 ± 0.85; for EASNCFAIRHFEN [K-14-*]: -4.92 ± 0.57; for EASNCFAIRHFENK [F-15-*]: -4.43 ± 0.56.

On to EASNCFAIRHFENKF [A-16-*], for which the amyloid nucleation score is -4.34 ± 0.67.

As to EASNCFAIRHFENKFA [V-17-*], the amyloid nucleation score is -5.63 ± 1.4.

On to EASNCFAIRHFENKFAV [E-18-*], for which the amyloid nucleation score was -3.23 ± 0.49. EASNCFAIRHFENKFAVE [T-19-*] yielded an amyloid nucleation score of -3.43 ± 0.55. For EASNCFAIRHFENKFAVET [L-20-*], the amyloid nucleation score is -4.16 ± 0.68.

The record behind these values is the supplement of paper PMC12067230.
